Data: publication PMC4745115

Substrate: C[N+](C)(C)CCO
Experiment: SSM-based electrophysiology, peak currents, proteoliposomes
Format: biochemical, Corynebacterium glutamicum
Details: 500 mM NaCl, 250 mM KPi pH 7.5, 22 °C

B1: BetP (Corynebacterium glutamicum ATCC 13032; G153D) (protein)
chain: MTTSDPNPKPIVEDAQPEQITATEELAGLLENPTNLEGKLADAEEEIILEGEDTQASLNWSVIVPALVIVLATVVWGIGFKDSFTNFASSALSAVVDNLGWAFILFGTVFVFFIVVIAASKFGTIRLGRIDEAPEFRTVSWISMMFAAGMGIDLMFYGTTEPLTFYRNGVPGHDEHNVGVAMSTTMFHWTLHPWAIYAIVGLAIAYSTFRVGRKQLLSSAFVPLIGEKGAEGWLGKLIDILAIIATVFGTACSLGLGALQIGAGLSAANIIEDPSDWTIVGIVSVLTLAFIFSAISGVGKGIQYLSNANMVLAALLAIFVFVVGPTVSILNLLPGSIGNYLSNFFQMAGRTAMSADGTAGEWLGSWTIFYWAWWISWSPFVGMFLARISRGRSIREFILGVLLVPAGVSTVWFSIFGGTAIVFEQNGESIWGDGAAEEQLFGLLHALPGGQIMGIIAMILLGTFFITSADSASTVMGTMSQHGQLEANKWVTAAWGVATAAIGLTLLLSGGDNALSNLQNVTIVAATPFLFVVIGLMFALVKDLSNDVIYLEYREQQRFNARLARERRVHNEHRKRELAAKRRRERKASGAGKRR
- Km: 135 ± 28 µM
